Laboratory results published in patent publication US11655308B2, “HM-3 fusion protein and application thereof” (TASLY BIOPHARMACEUTICALS CO., LTD., priority 2017, dated 2023).
Read-outs that look alike come from different tables or passages of the source. Marks after values point to notes of the source that are not given here.

Legend:
human macrophage U937 = experiment: TNF-α production by LPS-induced human macrophage U937 (ELISA); format: cell-based
Method: Experimental method: Human macrophage U937 was cultured in RPMI-1640 medium containing 10% fetal bovine serum and double antibodies in a constant temperature incubator at 37° C. under the condition of 5% CO2, and the medium was replaced every 2 days. U937 cells in the logarithmic phase were collected, resuspended and adjusted to the concentration of 5×10^5/mL. 100 μL of cells was added to each well of a 96-well plate overnight and induced with LPS (1 μg/mL) in the following day, where n=3. At the same time, the cells were treated with agents, and respectively divided into a positive control group adalimumab, an HM-3 polypeptide group, an mPEG-SC-HM-3 polypeptide group, an HM-3 fusion protein (TSL-1, TSL-2, TSL-3, TSL-4) group, and the specific dosing scheme was shown in Table 5.
48 h after the agents worked, culture medium was collected and centrifuged, and supernatant was taken to measure the content of TNF-α therein by ELISA. Test results were expressed as mean±SD, and statistical T test was performed. *P<0.05 indicates significant difference, **P<0.01 indicates extremely significant difference. Based upon the results, the efficacy of the HM-3 fusion protein against rheumatoid arthritis was screened.

[1] = tested on: transgenic blood vessel fluorescent zebrafish; experiment: In vivo anti-angiogenesis in zebrafish (SIVs area); design: area of SIVs: unit not given here; settings: for inhibition rate of angiogenesis / area of SIVs: 24 h; for area of SIVs: normal control group 53193
Method: Experimental method: transgenic blood vessel fluorescent zebrafish was randomly selected and put into a six-well plate with 30 fish per well, and intravenously injected HM-3 polypeptide, TSL-1 fusion protein, TSL-2 fusion protein, TSL-3 fusion protein and TSL-4 fusion protein respectively in accordance with the dosage of 20 ng/tail and 66 ng/tail; the dosage was […] in Avastin positive control and the injection volume was 20 nL/tail; the zebrafish injected 20 nL/tail of buffer solution served as a solvent control group, and the zebrafish without any treatment served as a normal control group. 10 pieces of zebrafish were randomly selected from each group after processed for 24 h to observe the intestinal vessels of the transgenic zebrafish by a fluorescence microscope, as well as to take and maintain images. Image analysis was performed by Nikon MS-Elements D 3.10 to calculate the area (S) of SIVs (subintestinal vessel, SIV). The calculation formula of angiogenesis inhibition rate was as follows: Angiogenesis inhibition rate (%)=(1−S(Test sample group)/S(Normal control group))×100%
Statistical analysis was performed by variance analysis and Dunnett's T-test and the results were expressed as Mean±SD, where p<0.05 indicates a significant difference.

Rat chondrocyte = experiment: Protective effect of TSL-4 on chondrocytes injured by hydrogen peroxide (MTT); format: cell-based
Method: The culture medium was replaced to different experimental groups in the following day with a dose volume of 100 μl and incubated for 24 or 48 hours respectively.
At the end of incubation according to the experimental plan, 10 μL of 5 mg/ml MTT was added to each experimental group based upon 1/10 of the cell culture volume, so that the cells were incubated with MTT in the incubator for 4 hours. Afterwards, supernatant was carefully discarded, and 200 μL of dimethyl sulfoxide (DMSO) was added for mixing well, then the absorbance was measured on a microplate reader at a test wavelength of 570 nm. Calculating formula of relative cell activity ratio (%): a mean value of the absorbance (per well) in the experimental group/the absorbance in the control group multiplies by 100%. […] The difference between each group was analyzed by Prism 7.0, and tested by one-way ANOVA. *P<0.05 means statistical difference, **P<0.01 means significant statistical difference, and […] means extremely significant statistical difference.
In order to detect the protective effect of TSL-4 on chondrocytes injured by hydrogen peroxide, the experiment was divided into three groups control group (no hydrogen peroxide and TSL-4, only adding fresh culture medium), hydrogen peroxide modeling group (only adding hydrogen peroxide cell culture medium containing different concentrations) and TSL-4 administration group (containing hydrogen peroxide). In order to detect the protective effect of TSL-4 on chondrocytes injured by hydrogen peroxide, TSL-4 and hydrogen peroxide were cultured with chondrocytes for 24 hours. The dosage of hydrogen peroxide was selected within 0.1, 0.25, 0.5 and 1 mM; the TSL-4 dosage was 0.23, 1.17, 5.86, 29.3
In the presence of different doses of H2O2, TSL-4 at proper concentration and chondrocytes were cultured for 24 h, and the relative cell viability in each administration group (relative absorbance percentage to the control group) was expressed as the following X±SD.
In the presence of the molding agent H2O2 at 0.25, 0.35, 0.5 mM, 1.17 and 5.86 μM TSL-4 were cultured with chondrocytes for 24 h, and the relative cell viability in each administration group (relative absorbance percentage to the control group) was expressed as the followings X±SD.

[2] = rat, in vivo, sc
Method: (1) 18 SD rats (half male and half female) were purchased and fed for one week.
(2) Rats were divided into 3 groups, half male and half female, and weight of rats were recorded respectively.
The blood was centrifuged at 12000 rpm/min to take 200 μL of supernatant, then the supernatant was diluted with PBS solution according to a ratio of 1:3, and finally placed in an EP tube and stored in a −80° C. refrigerator.
(4) Biological samples were measured by double-antibody sandwich ELISA.
(1) Coating, HM-3 monoclonal antibody was diluted with a coating buffer (CBS) in certain concentration, added to an ELISA plate and coated overnight.
(2) Plate washing, the coating buffer was discarded, and the plate was washed by PBST for 3 times, and then dried by patting.
(3) Sealing, a blocking buffer was added for sealing at 37.5° C., the plate washing process was repeated and the plate was dried by patting.
(4) Addition of samples to be measured, the samples to be measured were added to the ELISA plate with multiple wells, and then incubated at 37.5° C.; the plate washing process was repeated and the plate was dried by patting.
(5) Addition of a secondary antibody, the secondary antibody diluted proportionally was added for incubation at 37.5° C. The plate washing process was repeated and the plate was dried by patting.
(6) Addition of the enzyme-labeled secondary antibody for reaction, the HRP-labeled secondary antibody which was diluted by 5% skim milk powder solution according to certain proportion was added for incubation at 37.5° C. The plate washing process was repeated and the plate was dried by patting.
(7) Addition of a substrate, a TMB substrate in certain volume L was added for reaction in the dark.
(8) Termination of the reaction, a certain amount of stop buffer was added to terminate the reaction.
(9) Detection, read OD450 nm with a microplate reader.

Question: With mIgG4-Fc-(GGGGS)3-HM-3 [TSL-4] as the substance, how does the “inhibitory effect on TNF-α compared with HM-3 and mPEG-SC-HM-3” value (human macrophage U937) read?
Answer: The value was “much better than that of polypeptide HM-3 and mPEG-SC-HM-3”.

Question: What about the “TNF-α content in cell supernatant” value (human macrophage U937; 9 μM, LPS 1 μg/mL, 48 h, negative group 77.6±19.6) of the same substance?
Answer: The value was 22.2 ± 8.9 pg/mL.

Question: And the “inhibiting effect on angiogenesis” value ([1]; 20 ng/tail)?
Answer: Its value is “significant inhibitory effect”.

Question: And the “inhibition rate of angiogenesis” value ([1]; 20 ng/tail iv)?
Answer: The value was 36%.

Question: What about the “area of SIVs” value ([1]; 20 ng/tail iv) of the same substance?
Answer: The value was 33869.

Question: And the “inhibition rate of angiogenesis” value ([1]; 66 ng/tail iv)?
Answer: Its value is 47%.

Question: And the “area of SIVs” value ([1]; 66 ng/tail iv)?
Answer: Its value is 28297.

Question: What about the “relative cell viability (relative absorbance percentage to the control group)” value (shortened to “relative absorbance percentage”) (Rat chondrocyte; 0.23 μM TSL-4, 0.1 mM H2O2, 24 h, 0 μM 106.87 ± 9.52) of the same substance?
Answer: Its value is 84.23 ± 20.42***.

Question: What about the “relative absorbance percentage” value (Rat chondrocyte; 0.23 μM TSL-4, 0.25 mM H2O2, 24 h, 0 μM 70.96 ± 11.61) of the same substance?
Answer: Its value is 71.42 ± 6.74.

Question: What about the “relative absorbance percentage” value (Rat chondrocyte; 0.23 μM TSL-4, 0.5 mM H2O2, 24 h, 0 μM 1.68 ± 0.82) of the same substance?
Answer: The value was 3.17 ± 1.45.

Question: What about the “relative absorbance percentage” value (Rat chondrocyte; 0.23 μM TSL-4, 1 mM H2O2, 24 h, 0 μM 3.57 ± 0.60) of the same substance?
Answer: The value was 0.89 ± 0.32.

Question: And the “relative absorbance percentage” value (Rat chondrocyte; 1.17 μM TSL-4, 0.1 mM H2O2, 24 h, 0 μM 106.87 ± 9.52)?
Answer: The value was 100.01 ± 5.02.

Question: What about the “relative absorbance percentage” value (Rat chondrocyte; 1.17 μM TSL-4, 0.25 mM H2O2, 24 h, 0 μM 70.96 ± 11.61) of the same substance?
Answer: Its value is 85.11 ± 8.08*.

Question: And the “relative absorbance percentage” value (Rat chondrocyte; 1.17 μM TSL-4, 0.5 mM H2O2, 24 h, 0 μM 1.68 ± 0.82)?
Answer: Its value is 16.56 ± 5.91*.

Question: What about the “relative absorbance percentage” value (Rat chondrocyte; 1.17 μM TSL-4, 1 mM H2O2, 24 h, 0 μM 3.57 ± 0.60) of the same substance?
Answer: The value was 1.14 ± 1.07.

Question: And the “relative absorbance percentage” value (Rat chondrocyte; 5.86 μM TSL-4, 0.1 mM H2O2, 24 h, 0 μM 106.87 ± 9.52)?
Answer: The value was 102.36 ± 9.75.

Question: What about the “relative absorbance percentage” value (Rat chondrocyte; 5.86 μM TSL-4, 0.25 mM H2O2, 24 h, 0 μM 70.96 ± 11.61) of the same substance?
Answer: Its value is 86.35 ± 4.20*.

Question: What about the “relative absorbance percentage” value (Rat chondrocyte; 5.86 μM TSL-4, 0.5 mM H2O2, 24 h, 0 μM 1.68 ± 0.82) of the same substance?
Answer: Its value is 10.27 ± 7.08.

Question: What about the “relative absorbance percentage” value (Rat chondrocyte; 5.86 μM TSL-4, 1 mM H2O2, 24 h, 0 μM 3.57 ± 0.60) of the same substance?
Answer: Its value is 1.21 ± 0.70.

Question: What about the “relative absorbance percentage” value (Rat chondrocyte; 29.3 μM TSL-4, 0.1 mM H2O2, 24 h, 0 μM 106.87 ± 9.52) of the same substance?
Answer: Its value is 76.46 ± 5.45****.

Question: What about the “relative absorbance percentage” value (Rat chondrocyte; 29.3 μM TSL-4, 0.25 mM H2O2, 24 h, 0 μM 70.96 ± 11.61) of the same substance?
Answer: Its value is 59.72 ± 3.49.

Question: And the “relative absorbance percentage” value (Rat chondrocyte; 29.3 μM TSL-4, 0.5 mM H2O2, 24 h, 0 μM 1.68 ± 0.82)?
Answer: Its value is 3.87 ± 6.00.

Question: And the “relative absorbance percentage” value (Rat chondrocyte; 29.3 μM TSL-4, 1 mM H2O2, 24 h, 0 μM 3.57 ± 0.60)?
Answer: Its value is 0.43 ± 0.53.

Question: And the “viability of chondrocytes stimulated by H2O2” value (Rat chondrocyte; 0.23/29.3 μM TSL-4, 0.1 mM H2O2)?
Answer: The value was “relatively significantly inhibiting effect”.

Question: And the “relative absorbance percentage” value (Rat chondrocyte; repeated trial: 1.17 μM TSL-4, 0.25 mM H2O2, 24 h, 0 μM 78.77 ± 7.45)?
Answer: Its value is 85.31 ± 7.36.

Question: And the “relative absorbance percentage” value (Rat chondrocyte; repeated trial: 1.17 μM TSL-4, 0.35 mM H2O2, 24 h, 0 μM 63.96 ± 6.46)?
Answer: The value was 68.54 ± 3.62.

Question: What about the “relative absorbance percentage” value (Rat chondrocyte; repeated trial: 1.17 μM TSL-4, 0.5 mM H2O2, 24 h, 0 μM 37.10 ± 6.53) of the same substance?
Answer: The value was 41.46 ± 2.08.

Question: What about the “relative absorbance percentage” value (Rat chondrocyte; repeated trial: 5.86 μM TSL-4, 0.25 mM H2O2, 24 h, 0 μM 78.77 ± 7.45) of the same substance?
Answer: The value was 87.36 ± 7.85.

Question: What about the “viability of chondrocytes injured by H2O2” value (Rat chondrocyte; repeated trial: 5.86 μM TSL-4, 0.35 mM H2O2) of the same substance?
Answer: Its value is “significantly improve the viability of chondrocytes”.

Question: What about the “relative absorbance percentage” value (Rat chondrocyte; repeated trial: 5.86 μM TSL-4, 0.35 mM H2O2, 24 h, 0 μM 63.96 ± 6.46) of the same substance?
Answer: Its value is 73.29 ± 4.39.

Question: And the “relative absorbance percentage” value (Rat chondrocyte; repeated trial: 5.86 μM TSL-4, 0.5 mM H2O2, 24 h, 0 μM 37.10 ± 6.53)?
Answer: The value was 45.07 ± 6.36.

Question: What about the Vd/F ([2]; 4.17 mg/kg) of the same substance?
Answer: Its Vd/F is 4.200 L/kg.

Question: What about the Vd/F ([2]; 12.5 mg/kg) of the same substance?
Answer: Its Vd/F is 3.177 L/kg.

Question: And the Vd/F ([2]; 37.5 mg/kg)?
Answer: Its Vd/F is 4.967 L/kg.
